These results are taken from article PMC2757144 (Molecular cell, 2009).

Test [1] concerns the target T1, NSBP1 (HMGN5), wild type, recombinant (mouse, UniProt Q9JL35 1-406).
T1 sequence (looked up): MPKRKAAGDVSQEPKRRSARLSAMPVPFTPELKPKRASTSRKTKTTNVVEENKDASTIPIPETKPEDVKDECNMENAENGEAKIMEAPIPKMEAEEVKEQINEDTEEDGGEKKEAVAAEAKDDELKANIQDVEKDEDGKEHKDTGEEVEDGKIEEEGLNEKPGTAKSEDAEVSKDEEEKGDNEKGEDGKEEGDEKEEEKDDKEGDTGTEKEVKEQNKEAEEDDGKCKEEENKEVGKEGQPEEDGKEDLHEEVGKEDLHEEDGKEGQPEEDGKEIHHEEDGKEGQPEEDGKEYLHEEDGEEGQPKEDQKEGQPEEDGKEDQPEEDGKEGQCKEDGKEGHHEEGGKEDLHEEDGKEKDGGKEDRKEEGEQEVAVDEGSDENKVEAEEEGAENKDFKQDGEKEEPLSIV
The test is described as follows: cross-linking.

Test [2] concerns the target T2, HMGB1 (from mouse thymus) (mouse, UniProt P63158 1-215).
T2 sequence (looked up): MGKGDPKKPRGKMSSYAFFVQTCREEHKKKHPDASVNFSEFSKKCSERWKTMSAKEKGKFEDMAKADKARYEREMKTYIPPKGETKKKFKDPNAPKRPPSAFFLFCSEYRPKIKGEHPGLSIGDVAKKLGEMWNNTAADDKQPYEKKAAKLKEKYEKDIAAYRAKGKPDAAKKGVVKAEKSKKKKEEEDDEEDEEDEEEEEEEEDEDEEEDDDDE
The test is described as follows: cross-linking.

B1: linker histone H5 (native, from chicken erythrocytes) (natural protein, UniProt P02259 1-190, looked up)
chain: MTESLVLSPAPAKPKRVKASRRSASHPTYSEMIAAAIRAEKSRGGSSRQSIQKYIKSHYKVGHNADLQIKLSIRRLLAAGVLKQTKGVGASGSFRLAKSDKAKRSPGKKKKAVRRSTSPKKAARPRKARSPAKKPKATARKARKKSRASPKKAKKPKTVKAKSRKASKAKKVKRSKPRAKSGARKSPKKK
Regarding B1, the binding result in test [1] and in test [2] was “binds” each time.
